Measurements from patent US20190070251A1.

B1: Kisspeptin-54 (peptide)
peptide: GTSLSPPPESSGSPQQPGLSAPHSRQIPAPQGAVLVQREKDLPNYNWNSFGLRF
modifications: C-terminal amide (-NH2)

Key:
[1] = biological target: GPR54 G-Protein coupled receptor (cloned human GPR54) (human) (UniProt Q969F8); assay: cell-based or functional assay
[2] = biological target: human µ opioid receptor (human), P35372; assay: radioligand competition with [3H]naloxone (5 nM), membranes of CHO-K1 cells with recombinant human µ opioid receptor; Ki by Cheng-Prusoff; sample diluted on the day of the assay (unreleased)
Sequence of human µ opioid receptor (human), P35372 (P35372 whole entry): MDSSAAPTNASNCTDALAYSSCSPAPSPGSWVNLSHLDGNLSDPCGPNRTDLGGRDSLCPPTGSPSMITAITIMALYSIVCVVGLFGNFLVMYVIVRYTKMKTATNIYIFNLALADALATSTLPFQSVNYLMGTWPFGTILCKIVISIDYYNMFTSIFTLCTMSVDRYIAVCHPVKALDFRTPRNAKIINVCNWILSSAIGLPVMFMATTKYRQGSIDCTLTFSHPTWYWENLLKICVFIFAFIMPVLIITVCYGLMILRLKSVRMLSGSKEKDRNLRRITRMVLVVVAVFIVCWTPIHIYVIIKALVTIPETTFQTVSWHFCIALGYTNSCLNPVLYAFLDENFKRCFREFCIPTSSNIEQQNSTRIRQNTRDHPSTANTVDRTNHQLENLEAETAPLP

[3] = biological target: human µ opioid receptor (human), P35372; assay: radioligand competition with [3H]naloxone (5 nM), membranes of CHO-K1 cells with recombinant human µ opioid receptor; Ki by Cheng-Prusoff; sample pre-incubated 72 h at 37 C, pH 7.5 (partly released biphalin)
[4] = biological target: human µ opioid receptor (human), P35372; assay: radioligand competition with [3H]naloxone (5 nM), membranes of CHO-K1 cells with recombinant human µ opioid receptor; Ki by Cheng-Prusoff; sample pre-incubated 20 h at 37 C, pH 7.5 (partly released biphalin)
[5] = biological target: human µ opioid receptor (human), P35372; assay: radioligand competition with [3H]naloxone (5 nM), membranes of CHO-K1 cells with recombinant human µ opioid receptor; Ki by Cheng-Prusoff
[6] = biological target: human µ opioid receptor (human), P35372; assay: radioligand competition with [3H]naloxone (5 nM), membranes of CHO-K1 cells with recombinant human µ opioid receptor; Ki by Cheng-Prusoff; sample pre-incubated 72 h at 37 C, pH 7.5
[7] = biological target: human µ opioid receptor (human), P35372; assay: radioligand competition with [3H]naloxone (5 nM), membranes of CHO-K1 cells with recombinant human µ opioid receptor; Ki by Cheng-Prusoff; remark: listed apart in the source

Binder	EC50 (nM) of agonist activation at GPR54 (FLIPR calcium flux) [1] [nM]	Fold change compared to metastin [1] [fold]	Ki [2] [nM]	further results
B1	190	16		
LPNYNWNSFGLRF (C-terminal amide (-NH2)) [Kisspeptin-13]	11	1		
YAGF (modifications not checked) [Di-CAC-PEG2-FMOC-NHS-20K-biphalin]			1120	Ki [3]: 13.7 nM
YAGF (modifications not checked) [Di-C2-PEG2-FMOC-NHS-20K-biphalin]			21.7	Ki [4]: 10.1 nM
YAGF (modifications not checked) [Biphalin]				Ki [5]: 3.4 nM; Ki [6]: 3.1 nM; Ki [7]: 4.7 nM
